No end group written: not given here.

One may read the IC50 as the midpoint of a concentration-inhibition curve. The low end stands for greater potency, the high end for weaker potency.

The first assay has as its target HLA-DR molecule encoded by the allele DRB1*1101 (human). Briefly: competition ELISA vs biotinylated HA 306-318. In general terms: ELISA stands for enzyme-linked immunosorbent assay.
Molecule LTFGWCYKLVPVEPD (modifications not checked) [Nef10.1 peptide (positions 137-151 of the HIV-1 Nef protein, Bru strain), P03406 137-151] gave an IC50 of 95 nM.

The molecule WCYKLVPVEPDKVEE (modifications not checked) [Nef10.3 peptide (positions 141-155 of the HIV-1 Nef protein, Bru strain), P03406 141-155] showed a concentration for half-maximal inhibition (IC50) of 350 nM.

Molecule PTVRERMRRAEPAAD (modifications not checked) [Nef1.4 peptide (positions 14-28 of the HIV-1 Nef protein, Bru strain), P03406 14-28] showed a half-inhibitory concentration (IC50) of 1250 nM.

As for SRLAFHHVARELHPE (modifications not checked) [Nef13.4 peptide (positions 187-201 of the HIV-1 Nef protein, Bru strain), P03406 187-201], the half-inhibitory concentration (IC50) is 6 nM.

Consider FGWCYKLVPVEPDKV (modifications not checked) [Nef10.2 peptide (positions 139-153 of the HIV-1 Nef protein, Bru strain), P03406 139-153], for which the half-maximal inhibitory concentration (IC50) turned out to be 250 nM.

As for AAVDLSHFLKEKGGL (modifications not checked) [Nef4.7 peptide (positions 83-97 of the HIV-1 Nef protein, Bru strain), P03406 83-97], the IC50 came out at 7500 nM.

LEKHGAITSSNTAATNAACAWLEAQEEEEVGFPVT (modifications not checked) [Nef3 peptide (positions 37-71 of the HIV-1 Nef protein, Bru strain), P03406 37-71] returned an IC50 of 2000 nM.

LAFHHVARELHPEYF (modifications not checked) [Nef13.5 peptide (positions 189-203 of the HIV-1 Nef protein, Bru strain), P03406 189-203] showed an IC50 of 8 nM.

A further assay has as its target HLA-DR molecule encoded by the allele DRB1*0101 (human). Briefly: competition ELISA vs biotinylated HA 306-318.
Molecule ERMRRAEPAADGVGA (modifications not checked) [Nef1.5 peptide (positions 18-32 of the HIV-1 Nef protein, Bru strain), P03406 18-32] returned an IC50 of 2750 nM.

Molecule LTFGWCYKLVPVEPD (modifications not checked) [Nef10.1 peptide (positions 137-151 of the HIV-1 Nef protein, Bru strain), P03406 137-151] displayed a concentration for half-maximal inhibition (IC50) of 150 nM.

WCYKLVPVEPDKVEE (modifications not checked) [Nef10.3 peptide (positions 141-155 of the HIV-1 Nef protein, Bru strain), P03406 141-155] had an IC50 of 850 nM.

Take PTVRERMRRAEPAAD (modifications not checked) [Nef1.4 peptide (positions 14-28 of the HIV-1 Nef protein, Bru strain), P03406 14-28]: the IC50 amounted to 1400 nM.

For FGWCYKLVPVEPDKV (modifications not checked) [Nef10.2 peptide (positions 139-153 of the HIV-1 Nef protein, Bru strain), P03406 139-153], the half-inhibitory concentration (IC50) stood at 85 nM.

In turn, YKLVPVEPDKVEEAN (modifications not checked) [Nef10.4 peptide (positions 143-157 of the HIV-1 Nef protein, Bru strain), P03406 143-157] had an IC50 of 9000 nM.

In turn, AAVDLSHFLKEKGGL (modifications not checked) [Nef4.7 peptide (positions 83-97 of the HIV-1 Nef protein, Bru strain), P03406 83-97] came in with an IC50 of 500 nM.

Turning to LEKHGAITSSNTAATNAACAWLEAQEEEEVGFPVT (modifications not checked) [Nef3 peptide (positions 37-71 of the HIV-1 Nef protein, Bru strain), P03406 37-71], the IC50 turned out to be 2500 nM.

With DLSHFLKEKGGLEGL (modifications not checked) [Nef5 peptide (positions 86-100 of the HIV-1 Nef protein, Bru strain), P03406 86-100], the 50% inhibitory concentration (IC50) is 6000 nM.

VPVEPDKVEEANKGE (modifications not checked) [Nef10.5 peptide (positions 146-160 of the HIV-1 Nef protein, Bru strain), P03406 146-160]: the concentration for half-maximal inhibition (IC50) amounted to 550 nM.

Another assay addresses HLA-DR molecule encoded by the allele DRB1*0401 (human). The assay is described as follows: competition ELISA vs biotinylated HA 306-318.
For the molecule LTFGWCYKLVPVEPD (modifications not checked) [Nef10.1 peptide (positions 137-151 of the HIV-1 Nef protein, Bru strain), P03406 137-151], the IC50 is 2000 nM.

The molecule WCYKLVPVEPDKVEE (modifications not checked) [Nef10.3 peptide (positions 141-155 of the HIV-1 Nef protein, Bru strain), P03406 141-155] gave an IC50 of 250 nM.

Regarding FGWCYKLVPVEPDKV (modifications not checked) [Nef10.2 peptide (positions 139-153 of the HIV-1 Nef protein, Bru strain), P03406 139-153], the IC50 was found to be 250 nM.

Molecule YKLVPVEPDKVEEAN (modifications not checked) [Nef10.4 peptide (positions 143-157 of the HIV-1 Nef protein, Bru strain), P03406 143-157] came in with an IC50 of 2750 nM.

As for LEKHGAITSSNTAATNAACAWLEAQEEEEVGFPVT (modifications not checked) [Nef3 peptide (positions 37-71 of the HIV-1 Nef protein, Bru strain), P03406 37-71], the IC50 was found to be 70 nM.

VPVEPDKVEEANKGE (modifications not checked) [Nef10.5 peptide (positions 146-160 of the HIV-1 Nef protein, Bru strain), P03406 146-160] registered a 50% inhibitory concentration (IC50) of 2000 nM.

A further assay concerns the target HLA-DR molecule encoded by the allele DRB5*0101 (human). The assay is described as follows: competition ELISA vs biotinylated HA 306-318.
The molecule LTFGWCYKLVPVEPD (modifications not checked) [Nef10.1 peptide (positions 137-151 of the HIV-1 Nef protein, Bru strain), P03406 137-151] returned a half-maximal inhibitory concentration (IC50) of 4500 nM.

In the case of WCYKLVPVEPDKVEE (modifications not checked) [Nef10.3 peptide (positions 141-155 of the HIV-1 Nef protein, Bru strain), P03406 141-155], the 50% inhibitory concentration (IC50) was 1500 nM.

For the molecule SRLAFHHVARELHPE (modifications not checked) [Nef13.4 peptide (positions 187-201 of the HIV-1 Nef protein, Bru strain), P03406 187-201], the IC50 was determined as 300 nM.

The molecule FGWCYKLVPVEPDKV (modifications not checked) [Nef10.2 peptide (positions 139-153 of the HIV-1 Nef protein, Bru strain), P03406 139-153] returned an IC50 of 900 nM.

The molecule AAVDLSHFLKEKGGL (modifications not checked) [Nef4.7 peptide (positions 83-97 of the HIV-1 Nef protein, Bru strain), P03406 83-97] registered a half-maximal inhibitory concentration (IC50) of 3250 nM.

Take LAFHHVARELHPEYF (modifications not checked) [Nef13.5 peptide (positions 189-203 of the HIV-1 Nef protein, Bru strain), P03406 189-203]: the half-inhibitory concentration (IC50) worked out at 600 nM.

In turn, DLSHFLKEKGGLEGL (modifications not checked) [Nef5 peptide (positions 86-100 of the HIV-1 Nef protein, Bru strain), P03406 86-100] registered a half-maximal inhibitory concentration (IC50) of 8000 nM.

In turn, DKVEEANKGENTSLL (modifications not checked) [Nef10.6 peptide (positions 151-165 of the HIV-1 Nef protein, Bru strain), P03406 151-165] yielded an IC50 of 1500 nM.

Another assay deals with T1, HLA-DR molecule encoded by the allele DRB1*1301 (human).
T1 chain 1: not shown
T1 chain 2: not shown
Briefly: competition ELISA vs biotinylated B1 21-36.
The molecule PTVRERMRRAEPAAD (modifications not checked) [Nef1.4 peptide (positions 14-28 of the HIV-1 Nef protein, Bru strain), P03406 14-28] displayed an IC50 of 750 nM.

SRLAFHHVARELHPE (modifications not checked) [Nef13.4 peptide (positions 187-201 of the HIV-1 Nef protein, Bru strain), P03406 187-201] showed a concentration for half-maximal inhibition (IC50) of 350 nM.

As to LAFHHVARELHPEYF (modifications not checked) [Nef13.5 peptide (positions 189-203 of the HIV-1 Nef protein, Bru strain), P03406 189-203], the half-inhibitory concentration (IC50) was found to be 600 nM.

In turn, VGWPTVRERMRRAEP (modifications not checked) [Nef1.3 peptide (positions 11-25 of the HIV-1 Nef protein, Bru strain), P03406 11-25] came in with an IC50 of 700 nM.

In another assay the target is T2, HLA-DR molecule encoded by the allele DRB4*0101 (human).
T2 chain 1: not shown
T2 chain 2: not shown
The assay is described as follows: competition ELISA vs biotinylated E2/E168.
Consider LTFGWCYKLVPVEPD (modifications not checked) [Nef10.1 peptide (positions 137-151 of the HIV-1 Nef protein, Bru strain), P03406 137-151], for which the half-maximal inhibitory concentration (IC50) amounted to 2200 nM.

Turning to WCYKLVPVEPDKVEE (modifications not checked) [Nef10.3 peptide (positions 141-155 of the HIV-1 Nef protein, Bru strain), P03406 141-155], the IC50 came out at 1030 nM.

With FGWCYKLVPVEPDKV (modifications not checked) [Nef10.2 peptide (positions 139-153 of the HIV-1 Nef protein, Bru strain), P03406 139-153], the IC50 came to 605 nM.

Turning to YKLVPVEPDKVEEAN (modifications not checked) [Nef10.4 peptide (positions 143-157 of the HIV-1 Nef protein, Bru strain), P03406 143-157], the IC50 came out at 1730 nM.

Consider LEKHGAITSSNTAATNAACAWLEAQEEEEVGFPVT (modifications not checked) [Nef3 peptide (positions 37-71 of the HIV-1 Nef protein, Bru strain), P03406 37-71], for which the IC50 worked out at 8000 nM.

The next assay deals with HLA-DR molecule encoded by the allele DRB1*0301 (human). Briefly: competition ELISA vs biotinylated MT 2-16.
The molecule YKLVPVEPDKVEEAN (modifications not checked) [Nef10.4 peptide (positions 143-157 of the HIV-1 Nef protein, Bru strain), P03406 143-157] yielded an IC50 of 1470 nM.

In turn, PAADGVGAASRDLEK (modifications not checked) [Nef2 peptide (positions 25-39 of the HIV-1 Nef protein, Bru strain), P03406 25-39] registered a concentration for half-maximal inhibition (IC50) of 4250 nM.

LAFHHVARELHPEYF (modifications not checked) [Nef13.5 peptide (positions 189-203 of the HIV-1 Nef protein, Bru strain), P03406 189-203] had a 50% inhibitory concentration (IC50) of 1470 nM.

As to VPVEPDKVEEANKGE (modifications not checked) [Nef10.5 peptide (positions 146-160 of the HIV-1 Nef protein, Bru strain), P03406 146-160], the IC50 was 2500 nM.

The target in the next assay is T1, HLA-DR molecule encoded by the allele …. The assay is described as follows: competition ELISA, nonbiotinylated peptide vs its biotinylated form.
As for TERVRLVTRHIYNREE (not fully specified) [B1 21-36 peptide, nonbiotinylated], the half-maximal inhibitory concentration (IC50) was 330 nM.

The next assay addresses HLA-DR molecule encoded by the allele DRB1*0701 (human). Briefly: competition ELISA vs biotinylated YKL.
Turning to LTFGWCYKLVPVEPD (modifications not checked) [Nef10.1 peptide (positions 137-151 of the HIV-1 Nef protein, Bru strain), P03406 137-151], the IC50 worked out at 650 nM.

WCYKLVPVEPDKVEE (modifications not checked) [Nef10.3 peptide (positions 141-155 of the HIV-1 Nef protein, Bru strain), P03406 141-155]: the IC50 turned out to be 250 nM.

SRLAFHHVARELHPE (modifications not checked) [Nef13.4 peptide (positions 187-201 of the HIV-1 Nef protein, Bru strain), P03406 187-201] came in with an IC50 of 225 nM.

Consider FGWCYKLVPVEPDKV (modifications not checked) [Nef10.2 peptide (positions 139-153 of the HIV-1 Nef protein, Bru strain), P03406 139-153], for which the IC50 was found to be 120 nM.

YKLVPVEPDKVEEAN (modifications not checked) [Nef10.4 peptide (positions 143-157 of the HIV-1 Nef protein, Bru strain), P03406 143-157] registered an IC50 of 2250 nM.

On to LEKHGAITSSNTAATNAACAWLEAQEEEEVGFPVT (modifications not checked) [Nef3 peptide (positions 37-71 of the HIV-1 Nef protein, Bru strain), P03406 37-71], for which the IC50 was found to be 3000 nM.

LAFHHVARELHPEYF (modifications not checked) [Nef13.5 peptide (positions 189-203 of the HIV-1 Nef protein, Bru strain), P03406 189-203] registered a concentration for half-maximal inhibition (IC50) of 250 nM.

The values are drawn from patent publication US20040115622A1.
